Assays:
[1] = molecular target: catalase from sweet pepper (Capsicum annuum L.) fruits (Capsicum annuum (endogenous in sweet pepper fruits)) (UniProt Q9M5L6); assay: SEC; FPLC gel filtration on Superose 12 in 50 mM Tris-HCl, pH 8.0; ammonium sulfate fraction (20-80%) of green pepper fruit extract; catalase activity followed in fractions; column calibrated with rubisco, ferritin, aldolase, phosphorylase b and myoglobin
[2] = molecular target: catalase from sweet pepper (Capsicum annuum L.) fruits (Capsicum annuum (endogenous in sweet pepper fruits)) (UniProt Q9M5L6); assay: native gel or EMSA; Hedrick and Smith method: non-denaturing PAGE at 5-7% acrylamide, catalase activity staining in gels; BSA monomer, dimer, trimer and tetramer as molecular weight standards

Work on “catalase from sweet pepper (Capsicum annuum L.) fruits (from UniProt Q9M5L6 1-492) (enzyme)” yielded a stoichiometry N [1] of 2 and a stoichiometry N [2] of 2.
